Patent EP0651055A2 (priority 1993, dated 1995)

Key:
[1] = tested on: CC(=O)SCC[N+](C)(C)C; assay: purified protein, by the assay type; details: sodium-phosphate buffer pH 8, 27°C
[2] = tested on: CC(=O)SCCC(C)(C)C; assay: purified protein, by the assay type; details: sodium-phosphate buffer pH 8, 27°C

With “recombinant HuAChE mutant Phe338Ala (Homo sapiens; F369A)” as the substance, how does the Km ([1]; other: Phe338Ala) read?
Its Km is 240 ± 20 µM.

And the Km ([2]; other: Phe338Ala)?
The Km was 300 ± 70 µM.

“recombinant HuAChE mutant Tyr337Ala (Homo sapiens; Y368A)” was tested. Which Km ([1]; other: Tyr337Ala) did it give?
Its Km is 100 ± 10 µM.

What about the Km ([2]; other: Tyr337Ala) of the same substance?
The Km was 200 ± 30 µM.

For “recombinant HuAChE mutant Glu202Gln (Homo sapiens; E233Q)”, which Km ([1]; other: Glu202Gln) is on record?
Its Km is 350 ± 40 µM.

What about the Km ([2]; other: Glu202Gln) of the same substance?
Its Km is 230 ± 30 µM.

With “recombinant HuAChE mutant Glu450Ala (Homo sapiens; E481A)” as the substance, how does the Km ([1]; other: Glu450Ala) read?
Its Km is 350 ± 40 µM.

And the Km ([2]; other: Glu450Ala)?
Its Km is 200 ± 40 µM.
